The values that follow come from publication PMC9670026.

The target of assay [1] is Protein A (UniProt P38507). Nature of the assay: LSPR (localized surface plasmon resonance) biosensor; Protein A immobilised by EDC/NHS on the gold-nanostructure sensor chip; IgG 0.45 mg/mL in running buffer, 1 mL injected at 1 mL/min, one injection (n = 1); running buffer PBS pH 7.4; room temperature; Langmuir 1:1 fit; apparent affinity.
In assay [2] the target is Protein A (UniProt P38507). Nature of the assay: LSPR (localized surface plasmon resonance) biosensor; Protein A immobilised by EDC/NHS on the gold-nanostructure sensor chip; IgG 0.45 mg/mL in running buffer, 1 mL injected at 1 mL/min, one injection (n = 1); running buffer 10 mM citrate, 150 mM NaCl, pH 3.5; room temperature; Langmuir 1:1 fit; apparent affinity.
Assay [3] has as its target Protein A (UniProt P38507). In words: LSPR (localized surface plasmon resonance) biosensor; Protein A immobilised by EDC/NHS on the gold-nanostructure sensor chip; IgG 0.45 mg/mL in running buffer, 1 mL injected at 1 mL/min, one injection (n = 1); running buffer 10 mM citrate, 150 mM NaCl, pH 3.8; room temperature; Langmuir 1:1 fit; apparent affinity.
The target in assay [4] is Protein A (UniProt P38507). Nature of the assay: LSPR (localized surface plasmon resonance) biosensor; Protein A immobilised by EDC/NHS on the gold-nanostructure sensor chip; IgG 0.45 mg/mL in running buffer, 1 mL injected at 1 mL/min, one injection (n = 1); running buffer 10 mM citrate, 150 mM NaCl, pH 4.0; room temperature; Langmuir 1:1 fit; apparent affinity.
In assay [5] the target is Human IgG1 monoclonal antibody, aggregate fraction (mainly dimers) (UniProt P01857). In words: LSPR (localized surface plasmon resonance) fiber-optical nanoplasmonic biosensor, ArgusEye AB. Particulars: room temperature under ambient conditions, pH 7.4: 140 mM sodium chloride, 2.7 mM potassium chloride, 10 mM phosphate, pH 4.0, 3.8 and 3.5: 150 mM NaCl with 10 mM citrate, pH 7.4: PBS (10 mM phosphate), pH 4.0, 3.8 and 3.5: 10 mM citrate (Methods and Results text). The Figure 3 caption state.

Assay [6] addresses Human IgG1 monoclonal antibody, monomer fraction (UniProt P01857). The description is as above. Particulars: room temperature under ambient conditions, pH 7.4: 140 mM sodium chloride, 2.7 mM potassium chloride, 10 mM phosphate, pH 4.0, 3.8 and 3.5: 150 mM NaCl with 10 mM citrate, pH 7.4: PBS (10 mM phosphate), pH 4.0, 3.8 and 3.5: 10 mM citrate (Methods and Results text). The Figure 3 caption state.

The target of assay [7] is Human IgG1, monomer fraction (human). Nature of the assay: SEC-MALS; SEC-MALS-RI-UV on Superdex 200 Increase 10/300 GL, 1 mL/min, 100 uL injected, room temperature; 0.45 mg/mL total IgG; aggregate fraction of the IgG1 batch. (In general: Size exclusion chromatography separates by hydrodynamic size, large species first.)

As a reminder, the koff is the rate constant with which the complex falls apart. The term kon denotes the rate constant with which the complex forms. One may read the stoichiometry N as the number of molecules, sites or subunits per partner or assembly.

On to “Human IgG1, aggregate fraction (antibody)”, for which the Kd in assay [1] turned out to be 1.2 nM; in assay [2] it was 350 nM; in assay [3] it was 65 nM; in assay [4] it was 26 nM. The koff in assay [1] turned out to be 2.9e-05 s⁻¹; in assay [2], 0.0099 s⁻¹; in assay [3], 0.0024 s⁻¹; in assay [4] it was 0.00092 s⁻¹. In addition, the kon in assay [1] worked out at 25000 M⁻¹ s⁻¹; in assay [2], 28000 M⁻¹ s⁻¹; in assay [3] it was 36000 M⁻¹ s⁻¹; in assay [4] it was 36000 M⁻¹ s⁻¹.
On to “Protein A (staphylococcal protein A, SpA)”, for which the koff in assay [5] (pH 3.5) was 0.0099 s⁻¹; in assay [5] (pH 3.8) it was 0.0024 s⁻¹; in assay [5] (pH 4.0), 0.00092 s⁻¹; in assay [5] (pH 7.4), 2.9e-05 s⁻¹; in assay [6] (pH 3.5), 0.011 s⁻¹; in assay [6] (pH 3.8) it was 0.01 s⁻¹. The koff in assay [6] (pH 4.0) worked out at 0.004 s⁻¹; in assay [6] (pH 7.4) it was 2.9e-05 s⁻¹. The on-rate constant (kon) in assay [5] (pH 3.5) was found to be 28000 M⁻¹ s⁻¹; in assay [5] (pH 3.8), 36000 M⁻¹ s⁻¹; in assay [5] (pH 4.0), 36000 M⁻¹ s⁻¹; in assay [5] (pH 7.4) it was 25000 M⁻¹ s⁻¹; in assay [6] (pH 3.5), 17000 M⁻¹ s⁻¹; in assay [6] (pH 3.8) it was 30000 M⁻¹ s⁻¹. Besides, the kon came to 31000 M⁻¹ s⁻¹ in assay [6] (pH 4.0) and 22000 M⁻¹ s⁻¹ in assay [6] (pH 7.4).
Human IgG1, monomer fraction (antibody) gave a stoichiometry N in assay [7] of 2. Further, the Kd in assay [1] was 1.3 nM; in assay [2], 660 nM; in assay [3], 330 nM; in assay [4], 130 nM. The koff in assay [1] was 2.9e-05 s⁻¹; in assay [2], 0.011 s⁻¹; in assay [3] it was 0.01 s⁻¹; in assay [4], 0.004 s⁻¹. Moreover, the on-rate constant (kon) in assay [1] turned out to be 22000 M⁻¹ s⁻¹; in assay [2] it was 17000 M⁻¹ s⁻¹; in assay [3] it was 30000 M⁻¹ s⁻¹; in assay [4], 31000 M⁻¹ s⁻¹.
